The text below walks through data of publication doi:10.1101/679134.

For the data set, the system named is CsrA-2 (rCsrA-2) (Coxiella burnetii). Briefly: EMSA. The settings on record: 30 min 37 C, pH not stated. On the technique in general: Mobility shift assays separate free from complexed probe on a gel.

CbsR12: the Kd (usually the constant that tells how readily two partners part at equilibrium) worked out at 0.13 µM.
